{
  "source": "patent US20110076272A1",
  "about": "“THERAPEUTIC METHODS AND COMPOSITIONS” (priority 2009, published 2011)",
  "molecules": {"B1": {"name": "AB0023: mouse anti-human LOXL2 monoclonal antibody; heavy chain variable region SEQ ID NO:1, light chain variable region SEQ ID NO:2 (antibody, listed as Mus musculus, V domains shown)", "VH": "MEWSRVFIFLLSVTAGVHSQVQLQQSGAELVRPGTSVKVSCKASGYAFTYYLIEWVKQRPGQGLEWIGVINPGSGGTNYNEKFKGKATLTADKSSSTAYMQLSSLTSDDSAVYFCARNWMNFDYWGQGTTLTVSS", "VL": "MRCLAEFLGLLVLWIPGAIGDIVMTQAAPSVSVTPGESVSISCRSSKSLLHSNGNTYLYWFLQRPGQSPQFLIYRMSNLASGVPDRFSGSGSGTAFTLRISRVEAEDVGVYYCMQHLEYPYTFGGGTKLEIK", "modifications": "Heavy chain; Light chain"}},
  "key": {"[1]": {"tested_on": "MDA-MB-435 established primary tumors", "test": "MDA-MB-435 established primary tumor xenograft model", "format": "in vivo, mouse", "design": "reduction in activated TAFs assessed by aSMA signal / reduction in VEGF signal versus vehicle-treated tumors / reduction in SDF-1/CXCL12 signal / reduction in LOXL2 signal: concentration or dose not given beside the values", "method": "To provide growing tumor tissue stock for subsequent orthotopic implantation, five- to six-week-old nude mice (NCr nu/nu) were injected subcutaneously with 2×10^6 MDA-MB-435-GFP cells (Anticancer, Inc., San Diego, Calif.) on the right flank. For this purpose, cultures of MDA-MB-435-GFP cells were harvested and dissociated by trypsinization, washed three times with cold serum-containing medium, and then kept on ice until injection. Cells were injected into the subcutaneous space of the flank of the animal in a total volume of 0.1 ml, within 30 min of harvesting. The nude mice were sacrificed to harvest tumor tissue 4 to 6 weeks after tumor cell injection for surgical orthotopic implantation (SOI) of tumor fragments.\nTumor pieces (˜1 mm^3), extracted from subcutaneously-growing GFP-expressing breast tumors, were implanted by surgical orthotopic implantation (SOI) on the breast of female nude mice (NCr nu/nu). Treatments with AB0023 (anti-LOXL2 monoclonal antibody), M64 (anti-LOX monoclonal antibody) and vehicle (all via intraperitoneal injection) and with Taxotere (by intravenous injection) were initiated when the average primary tumor volume reached 75 mm^3. Mice were administered the antibodies at a dose of 30 mg/kg twice a week for 28 days and Taxotere, at 10 mg/kg, was administered once a week for 3 weeks.\nBody weight and tumor size were recorded weekly. At the conclusion of the study, mice were sacrificed by cervical dislocation after being anesthetized with carbon dioxide. Primary breast tumors were imaged, harvested, cut in half symmetrically and snap-frozen for histological and immunohistochemical analyses.\nThe solutions used for the immunohistochemistry (IHC) protocols were obtained from Biocare Medical (Concord, Calif.) unless otherwise stated. All procedures were performed at room temperature. Slides were fixed with 4% PFA for 10 minutes and were subsequently treated with Peroxidazed-1 (Biocare Medical, Concord, Calif.) for 5 minutes. Then, the slides were background blocked with SNIPER (Biocare Medical, Concord, Calif.) for 10 minutes. Primary antibody (2-5 ug/ml final concentration) was diluted in Da Vinci Green Universal Diluent and applied to slides for 30 minutes. Slides were then rinsed in PBS-Tween-20. The Mach2 polymer kit was used for antigen detection by adding rabbit probe for 30 minutes. DAB chromagen was added to the slides for 3-5 minutes, then slides were rinsed once with deionized water. The slides were then counter-stained with hematoxylin, followed by dehydration with graded alcohol. The slides were mounted with entellan mounting medium (Electron Microscopy Sciences, Hatfield, Pa.)."}, "[2]": {"tested_on": "CCl4-induced liver fibrosis", "test": "CCl4-induced liver fibrosis", "format": "in vivo, mouse", "details": "30 mg/kg i.p. twice a week", "method": "Male BALB/c mice (10-12 weeks old) were obtained from Aragen Biosciences (Morgan Hill, Calif.). Mice were distributed into 4 groups. Mice in 3 of the groups were injected with CCl4 (Sigma-Aldrich, St. Louis, Mo.), and mice in the remaining group were injected with saline.\nCCl4 was intraperitoneally administered to mice at 1 ml/kg body weight (CCl4: mineral oil in 1:1 (v/v) ratio) twice weekly for 4 weeks. In the control group, 0.9% saline (saline:mineral oil in 1:1 (v/v) ratio) was administered intraperitoneally using the same dosing regimen.\nIn the CCl4-treated groups, the first group was treated with AB0023 (diluted in PBS/0.01% Tween-20), the second group was treated with pep4 M64 (diluted in […]) and the third group was treated with vehicle (PBST). Antibodies and vehicle were injected intraperioneally at a dose of 30 mg/kg twice a week. The treatment started a day prior to the first administration of CCl4 and continued until the end of the study. The study was terminated after 4 weeks of CCl4 and antibody administration. Mice were euthanized and sacrificed humanely and the livers were harvested 96 hours after completion of dosing. The livers were snap-frozen for histological and immunohistochemical analyses.\nTen fields (or areas or lobes) for each treatment regimen were randomly selected and stained with Sirius Red. The area used for scoring was 1.7 mm×1.3 mm and contained at least 8 portal triads.\nTriads and areas of complete bridging fibrosis were counted. […] The percentages from 10 fields (per treatment) were averaged and standard error was calculated.\nFor each treatment, five fields were selected and stained with an anti-alpha-smooth muscle actin (aSMA) antibody. aSMA-positive signal in the porto-portal region (threshold area %) was analyzed by Metamorph (Molecular Devices, Downingtown, Pa.). aSMA-positive signal in sections from animals undergoing AB0023-treatment was compared to signal obtained in sections from animals that had been treated with vehicle (PBS)."}, "[3]": {"tested_on": "purified recombinant human LOXL2", "sequence (Q9Y4K0 318-774 limits assumed)": "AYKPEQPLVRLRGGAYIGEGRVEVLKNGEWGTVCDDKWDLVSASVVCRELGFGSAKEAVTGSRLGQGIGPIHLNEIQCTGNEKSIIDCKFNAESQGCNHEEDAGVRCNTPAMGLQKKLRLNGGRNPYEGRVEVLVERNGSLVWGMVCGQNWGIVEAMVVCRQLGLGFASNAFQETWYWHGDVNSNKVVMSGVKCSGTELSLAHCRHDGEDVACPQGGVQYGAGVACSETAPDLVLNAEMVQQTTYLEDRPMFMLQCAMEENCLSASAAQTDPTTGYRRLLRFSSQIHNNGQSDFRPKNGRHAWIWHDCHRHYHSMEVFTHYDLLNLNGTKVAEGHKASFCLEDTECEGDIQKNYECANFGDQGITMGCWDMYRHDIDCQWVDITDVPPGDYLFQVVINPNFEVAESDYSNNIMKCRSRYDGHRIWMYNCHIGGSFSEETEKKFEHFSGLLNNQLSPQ", "test": "Amplex Red assay of LOXL2 enzymatic activity", "format": "biochemical", "method": "A mouse anti-human LOXL2 antibody (AB0023) was obtained by immunization with full-length LOXL2 protein and purified by SEC-HPLC (Tosoh TSKGEL G3000SWXL 7.8×300). Analytical size exclusion chromatography was used to assess antibody stability and purity. Purified AB0023 was run on SDS-PAGE Coomassie (Invitrogen BT 4-12% Gels) reducing and non-reducing gels to assess purity. Potency was examined by ELISA to determine Kd, and effect on LOXL2 enzymatic activity was determined using an Amplex Red Assay (Molecular Probes/Invitrogen, Carlsbad, Calif.). Antibody concentration was measured by absorbance at 280 nm using an Extinction Coefficient Abs 0.1% of 1.4. Identity was assayed by isoelectric focusing (Invitrogen pH 3-10 IEF Gels). For safety analysis, endotoxin levels were measured at a sensitivity range of 0.01-1 EU/ml (Charles River EndoSafe PTS)."}, "[4]": {"tested_on": "fibroblasts or tumor cell lines", "test": "Short-term growth factor signaling (TGFb, PDGF-BB) with or without AB0023", "format": "cell-based"}, "[5]": {"details": "antibodies 30 mg/kg i.p. twice a week"}, "[6]": {"details": "tissue-based ELISA, fibroblasts and tumor cells"}},
  "data": [
    {"molecule": "B1", "values": [
      {"measurement": "abundance of fibroblasts in tumors versus vehicle", "setting": "[1]; H&E staining and other markers", "value": "less abundant overall"},
      {"measurement": "necrosis in tumors", "setting": "[1]; H&E, TNF-α IHC", "value": "significant regions of necrosis"},
      {"measurement": "reduction in LOXL2 signal", "setting": "[1]; IHC of tumors", "value": 55, "unit": "%"},
      {"measurement": "reduction in SDF-1/CXCL12 signal", "setting": "[1]; IHC of tumors", "value": 80, "unit": "%"},
      {"measurement": "reduction in VEGF signal versus vehicle-treated tumors", "setting": "[1]; IHC of tumors", "value": 76, "unit": "%"},
      {"measurement": "decrease in tumor volume at week 3", "setting": "[1]; [5]", "value": 45, "unit": "%"},
      {"measurement": "decrease in tumor volume at week 5", "setting": "[1]; [5]", "value": 33, "unit": "%"},
      {"measurement": "levels of Beclin-1 (autophagy) in tumor cells", "setting": "[1]; mouse, in vivo", "value": "increased"},
      {"measurement": "pyknosis, reduced viability of tumor cells", "setting": "[1]; mouse, in vivo", "value": "pyknosis and increased cytoplasmic condensation of nuclei"},
      {"measurement": "levels of TGF-β1", "setting": "[1]; [6]", "value": "reduced"},
      {"measurement": "levels of phosphorylated SMAD2", "setting": "[1]; [6]", "value": "reduced"},
      {"measurement": "levels of connective tissue growth factor (CTGF)", "setting": "[1]; tumor tissue", "value": "reduced"},
      {"measurement": "reduction in Sirius red staining (crosslinked collagen, desmoplasia)", "setting": "[1]; tumors harvested at day 39", "value": 61, "unit": "%"},
      {"measurement": "reduction in activated TAFs assessed by aSMA signal", "setting": "[1]; tumors harvested at day 39", "value": 88, "unit": "%"},
      {"measurement": "reduction in tumor vasculature, CD31 signal", "setting": "[1]; tumors harvested at day 39", "value": 74, "unit": "%"},
      {"measurement": "aSMA positive myofibroblasts in porto-portal septa", "setting": "[2]", "value": "substantial reduction"},
      {"measurement": "mortality resulting from injection with CCl4 (survival)", "setting": "[2]; AB0023 p=0.0029 log rank", "value": "prevented"},
      {"measurement": "bridging fibrosis in livers", "setting": "[2]; Sirius Red, AB0023 p=0.002, M64 p=0.127", "value": "significantly inhibited"},
      {"measurement": "mode of inhibition of LOXL2", "setting": "[3]", "value": "non-competitive allosteric inhibitors"},
      {"measurement": "inhibition of LOXL2 enzymatic activity", "setting": "[3]; in vitro", "value": "inhibits"},
      {"measurement": "inhibition of SMAD2 phosphorylation (TGFb signaling)", "setting": "[4]; 10-60 minute time frame", "value": "10-20%"},
      {"measurement": "effect on AKT phosphorylation", "setting": "[4]; PDGF-BB, 10-60 minute time periods", "value": "No significant effects"}
    ]}
  ]
}
